Laboratory results as given in article PMC12017989, “Carbohydrate deacetylase, a key enzyme in oxidative chitin degradation, is evolutionarily linked to amino acid deacetylase [drawing 1]” (The Journal of Biological Chemistry, 2025).

T1: AfDam (Alcaligenes faecalis, UniProt Q9AGH8)
T1 sequence (Q9AGH8 1-484): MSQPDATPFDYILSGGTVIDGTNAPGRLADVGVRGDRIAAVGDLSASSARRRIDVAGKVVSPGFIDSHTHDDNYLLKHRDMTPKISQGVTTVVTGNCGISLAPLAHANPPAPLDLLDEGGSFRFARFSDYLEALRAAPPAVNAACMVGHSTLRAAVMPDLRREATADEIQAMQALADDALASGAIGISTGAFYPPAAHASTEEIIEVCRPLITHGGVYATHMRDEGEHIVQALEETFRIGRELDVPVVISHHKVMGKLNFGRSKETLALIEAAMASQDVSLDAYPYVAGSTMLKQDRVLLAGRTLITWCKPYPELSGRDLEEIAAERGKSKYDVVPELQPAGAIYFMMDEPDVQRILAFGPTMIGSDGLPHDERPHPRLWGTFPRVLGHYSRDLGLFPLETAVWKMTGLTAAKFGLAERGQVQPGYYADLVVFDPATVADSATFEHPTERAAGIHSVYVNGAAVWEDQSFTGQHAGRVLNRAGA

T2: PpOngB (Pseudoalteromonas prydzensis, UniProt Z9WEX2YQL1, D368A)
T2 construct: pET-22b, His tag; E. coli BL21(DE3); residues 7-482 seen in crystal; one Zn
T2 sequence (Z9WEX2YQL1 1-489 D368A): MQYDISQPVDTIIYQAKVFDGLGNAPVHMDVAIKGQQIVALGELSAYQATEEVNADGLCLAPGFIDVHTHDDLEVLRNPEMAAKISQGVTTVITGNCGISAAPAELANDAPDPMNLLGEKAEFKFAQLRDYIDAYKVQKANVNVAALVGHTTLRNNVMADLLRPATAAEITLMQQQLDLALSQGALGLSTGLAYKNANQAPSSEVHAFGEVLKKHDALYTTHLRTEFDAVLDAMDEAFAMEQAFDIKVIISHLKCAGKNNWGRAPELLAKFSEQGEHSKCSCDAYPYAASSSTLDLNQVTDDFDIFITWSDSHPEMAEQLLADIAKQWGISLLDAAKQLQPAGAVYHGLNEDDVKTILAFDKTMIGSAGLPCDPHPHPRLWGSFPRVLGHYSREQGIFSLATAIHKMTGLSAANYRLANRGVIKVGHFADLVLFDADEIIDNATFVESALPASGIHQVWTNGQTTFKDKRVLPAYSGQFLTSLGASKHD


What was measured:
[1] = molecular target: T1, AfDam; experiment: deacetylase activity assay; type: biochemical; settings: 10 mM substrate, 10 mM Bis-Tris pH 7.0, 40 °C
[2] = molecular target: T3, BbDam (Bordetella bronchiseptica, UniProt A0A0H3LXD5); experiment: deacetylase activity assay; type: biochemical; settings: 10 mM substrate, 50 mM Hepes pH 8.0, 30 °C
T3 construct: gene BB3285

[3] = system: CC(=O)N[C@@H](C(=O)O)[C@@H](O)[C@H](O)[C@H](O)CO; experiment: purified protein; settings: 10 mM Bis-Tris pH 7.5, 30 °C, 2-120 mM substrate, Zn enzyme
Description: ninhydrin assay of primary amine, Michaelis-Menten fit on PaOngB

[4] = molecular target: T2, PpOngB; experiment: X-ray crystal structure, […] Å; type: binding; settings: inactive mutant cocrystallised; active site, open-chain aldonic acid coordinating zinc
[5] = substrate: CC(=O)N[C@@H](C(=O)O)[C@@H](O)[C@H](O)[C@H](O)CO; experiment: ninhydrin assay of primary amine, Michaelis-Menten fit; type: biochemical, Pseudoalteromonas maricaloris; settings: 10 mM Bis-Tris pH 7.5, 30 °C, 2-120 mM substrate, Zn enzyme
Description: ninhydrin assay of primary amine, Michaelis-Menten fit on PfOngB

[6] = substrate: CC(=O)N[C@@H](C(=O)O)[C@@H](O)[C@H](O)[C@H](O)CO; experiment: as above; type: biochemical, Pseudoalteromonas prydzensis; settings: 10 mM Bis-Tris pH 7.5, 30 °C, 2-120 mM substrate, Zn enzyme
Description: ninhydrin assay of primary amine, Michaelis-Menten fit on PpOngB

T3 sequence (A0A0H3LXD5 entry or part of it): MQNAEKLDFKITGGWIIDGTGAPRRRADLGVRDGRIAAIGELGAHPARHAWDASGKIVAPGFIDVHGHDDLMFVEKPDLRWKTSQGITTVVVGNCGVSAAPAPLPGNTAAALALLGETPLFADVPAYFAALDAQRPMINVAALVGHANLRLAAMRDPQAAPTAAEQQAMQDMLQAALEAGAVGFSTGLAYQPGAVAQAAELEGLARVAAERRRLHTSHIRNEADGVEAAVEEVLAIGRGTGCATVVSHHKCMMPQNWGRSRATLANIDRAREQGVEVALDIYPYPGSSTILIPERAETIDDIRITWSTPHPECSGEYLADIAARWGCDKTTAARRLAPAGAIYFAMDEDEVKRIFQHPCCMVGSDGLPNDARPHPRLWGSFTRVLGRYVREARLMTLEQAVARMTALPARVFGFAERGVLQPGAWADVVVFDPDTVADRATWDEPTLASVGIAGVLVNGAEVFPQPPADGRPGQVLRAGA

Molecule | Km [6] | Vmax [6] | kcat [6] | other results
CSCC[C@@H](NC(C)=O)C(=O)O [N-acetyl-D-methionine] | – | – | – | deacetylase activity assay [1]: enzymatic activities of AfDam and its mutants
CC(=O)N[C@H](CCC(=O)O)C(=O)O [N-acetyl-D-glutamate] | – | – | – | deacetylase activity assay [2]: enzymatic activities of BbDam and its mutants
PaOngB (Pseudoalteromonas arabiensis) | – | – | – | Km [3]: 9.1 ± 0.8 mM; Vmax [3]: 6.3 µmol/min/mg; kcat [3]: 5.5 ± 0.3 s⁻¹; kcat/Km [3]: 600 M⁻¹ s⁻¹
CC(=O)N[C@@H](C(=O)O)[C@@H](O)[C@H](O)[C@H](O)CO [GlcNAc1A, 2-(acetylamino)-2-deoxy-D-gluconic acid] | – | – | – | X-ray crystal structure, 2.29 Å [4]: crystal structure of PpOngB in complex with GlcNAc1A (the PpOngB-GlcNAc1A complex)
PfOngB (Pseudoalteromonas maricaloris) (protein, recombinant, cloned like PpOngB (pET-22b, His tag)) MLSSSPYVDTLIQGATVYFEPDSEAQVVDVAISKDKIVALGNCSHLQALQCIDATGLVLAPGFIDVHTHDDLEVLRGPYMLSKVSQGVTTVIAGNCGISAVPYCADQAPLDPINLLGEQSEFAYRELQDYQHAFSKAAPSVNLATLVGHTTLRAQVMTDLSQAANAQELEQMKTLLHQAMAQGAIGFSTGLAYYNAKGASQAEVNALAEVVTPFDGIYTTHLRTEFQGVIRAMDEAFATAEHAKLPLVISHIKCAGRENWGRAPEVLAHFELHRKTHPVSCDCYPYAASSSTLDLNQVTEETDIFITWSESHPELAQQSLANIATQWQVSQRDAAKRLQPAGAVYHCMLEDDVQRFVSYEHSMVGSDGLPCDPHPHPRLWGTFPRVLGHYCREQQSLPLALAIHKMTALPAARFKLRQRGNIQIGYFADLVLFDPNRVLDQASYSNPKQLASGIVKVWVNGKLSYVEGANADTIVDFGRAGRFLTRQN | – | – | – | Km [5]: 17.2 ± 1.0 mM; Vmax [5]: 13.4 µmol/min/mg; kcat [5]: 11.9 ± 0.7 s⁻¹; kcat/Km [5]: 700 M⁻¹ s⁻¹
PpOngB (Pseudoalteromonas prydzensis) (protein, pET-22b, His tag; E. coli BL21(DE3); residues 7-482 seen in crystal; one Zn) MQYDISQPVDTIIYQAKVFDGLGNAPVHMDVAIKGQQIVALGELSAYQATEEVNADGLCLAPGFIDVHTHDDLEVLRNPEMAAKISQGVTTVITGNCGISAAPAELANDAPDPMNLLGEKAEFKFAQLRDYIDAYKVQKANVNVAALVGHTTLRNNVMADLLRPATAAEITLMQQQLDLALSQGALGLSTGLAYKNANQAPSSEVHAFGEVLKKHDALYTTHLRTEFDAVLDAMDEAFAMEQAFDIKVIISHLKCAGKNNWGRAPELLAKFSEQGEHSKCSCDAYPYAASSSTLDLNQVTDDFDIFITWSDSHPEMAEQLLADIAKQWGISLLDAAKQLQPAGAVYHGLNEDDVKTILAFDKTMIGSDGLPCDPHPHPRLWGSFPRVLGHYSREQGIFSLATAIHKMTGLSAANYRLANRGVIKVGHFADLVLFDADEIIDNATFVESALPASGIHQVWTNGQTTFKDKRVLPAYSGQFLTSLGASKHD | 9.8 ± 0.8 mM | 17.4 µmol/min/mg | 15.4 ± 1.3 s⁻¹ | kcat/Km [6]: 1600 M⁻¹ s⁻¹
PpOngB (Pseudoalteromonas prydzensis; Q298A) (protein, pET-22b, His tag; E. coli BL21(DE3); residues 7-482 seen in crystal; one Zn) MQYDISQPVDTIIYQAKVFDGLGNAPVHMDVAIKGQQIVALGELSAYQATEEVNADGLCLAPGFIDVHTHDDLEVLRNPEMAAKISQGVTTVITGNCGISAAPAELANDAPDPMNLLGEKAEFKFAQLRDYIDAYKVQKANVNVAALVGHTTLRNNVMADLLRPATAAEITLMQQQLDLALSQGALGLSTGLAYKNANQAPSSEVHAFGEVLKKHDALYTTHLRTEFDAVLDAMDEAFAMEQAFDIKVIISHLKCAGKNNWGRAPELLAKFSEQGEHSKCSCDAYPYAASSSTLDLNAVTDDFDIFITWSDSHPEMAEQLLADIAKQWGISLLDAAKQLQPAGAVYHGLNEDDVKTILAFDKTMIGSDGLPCDPHPHPRLWGSFPRVLGHYSREQGIFSLATAIHKMTGLSAANYRLANRGVIKVGHFADLVLFDADEIIDNATFVESALPASGIHQVWTNGQTTFKDKRVLPAYSGQFLTSLGASKHD | 59.7 ± 5.0 mM | 7.7 µmol/min/mg | 6.8 ± 0.6 s⁻¹ | –
PpOngB (Pseudoalteromonas prydzensis; Q298N) (protein, pET-22b, His tag; E. coli BL21(DE3); residues 7-482 seen in crystal; one Zn) MQYDISQPVDTIIYQAKVFDGLGNAPVHMDVAIKGQQIVALGELSAYQATEEVNADGLCLAPGFIDVHTHDDLEVLRNPEMAAKISQGVTTVITGNCGISAAPAELANDAPDPMNLLGEKAEFKFAQLRDYIDAYKVQKANVNVAALVGHTTLRNNVMADLLRPATAAEITLMQQQLDLALSQGALGLSTGLAYKNANQAPSSEVHAFGEVLKKHDALYTTHLRTEFDAVLDAMDEAFAMEQAFDIKVIISHLKCAGKNNWGRAPELLAKFSEQGEHSKCSCDAYPYAASSSTLDLNNVTDDFDIFITWSDSHPEMAEQLLADIAKQWGISLLDAAKQLQPAGAVYHGLNEDDVKTILAFDKTMIGSDGLPCDPHPHPRLWGSFPRVLGHYSREQGIFSLATAIHKMTGLSAANYRLANRGVIKVGHFADLVLFDADEIIDNATFVESALPASGIHQVWTNGQTTFKDKRVLPAYSGQFLTSLGASKHD | 53.4 ± 2.5 mM | 9.4 µmol/min/mg | 8.3 ± 0.3 s⁻¹ | –
PpOngB (Pseudoalteromonas prydzensis; S292T) (protein, pET-22b, His tag; E. coli BL21(DE3); residues 7-482 seen in crystal; one Zn) MQYDISQPVDTIIYQAKVFDGLGNAPVHMDVAIKGQQIVALGELSAYQATEEVNADGLCLAPGFIDVHTHDDLEVLRNPEMAAKISQGVTTVITGNCGISAAPAELANDAPDPMNLLGEKAEFKFAQLRDYIDAYKVQKANVNVAALVGHTTLRNNVMADLLRPATAAEITLMQQQLDLALSQGALGLSTGLAYKNANQAPSSEVHAFGEVLKKHDALYTTHLRTEFDAVLDAMDEAFAMEQAFDIKVIISHLKCAGKNNWGRAPELLAKFSEQGEHSKCSCDAYPYAASSTTLDLNQVTDDFDIFITWSDSHPEMAEQLLADIAKQWGISLLDAAKQLQPAGAVYHGLNEDDVKTILAFDKTMIGSDGLPCDPHPHPRLWGSFPRVLGHYSREQGIFSLATAIHKMTGLSAANYRLANRGVIKVGHFADLVLFDADEIIDNATFVESALPASGIHQVWTNGQTTFKDKRVLPAYSGQFLTSLGASKHD | 54.2 ± 1.8 mM | 1.3 µmol/min/mg | 1.1 ± 0.1 s⁻¹ | –
